Laboratory results published in IntAct's records for PubMed 31515488.

B1: Syntenin-1 (Homo sapiens), O00560 (parent)
chain: MSLYPSLEDLKVDKVIQAQTAFSANPANPAILSEASAPIPHDGNLYPRLYPELSQYMGLSLNEEEIRANVAVVSGAPLQGQLVARPSSINYMVAPVTGNDVGIRRAEIKQGIREVILCKDQDGKIGLRLKSIDNGIFVQLVQANSPASLVGLRFGDQVLQINGENCAGWSSDKAHKVLKQAFGEKITMTIRDRPFERTITMHKDSTGHVGFIFKNGKITSIVKDSSAARNGLLTEHNICEINGQNVIGLKDSQIADILSTSGTVVTITIMPAFIFEHIIKRMAPSIMKSLMDHTIPEV
B2: Poliovirus receptor (Homo sapiens), P15151 (parent)
chain: MARAMAAAWPLLLVALLVLSWPPPGTGDVVVQAPTQVPGFLGDSVTLPCYLQVPNMEVTHVSQLTWARHGESGSMAVFHQTQGPSYSESKRLEFVAARLGAELRNASLRMFGLRVEDEGNYTCLFVTFPQGSRSVDIWLRVLAKPQNTAEVQKVQLTGEPVPMARCVSTGGRPPAQITWHSDLGGMPNTSQVPGFLSGTVTVTSLWILVPSSQVDGKNVTCKVEHESFEKPQLLTVNLTVYYPPEVSISGYDNNWYLGQNEATLTCDARSNPEPTGYNWSTTMGPLPPFAVAQGAQLLIRPVDKPINTTLICNVTNALGARQAELTVQVKEGPPSEHSGISRNAIIFLVLGILVFLILLGIGIYFYWSKCSREVLWHCHLCPSSTEHASASANGHVSYSAVSRENSSSQDPQTEGTR
partner: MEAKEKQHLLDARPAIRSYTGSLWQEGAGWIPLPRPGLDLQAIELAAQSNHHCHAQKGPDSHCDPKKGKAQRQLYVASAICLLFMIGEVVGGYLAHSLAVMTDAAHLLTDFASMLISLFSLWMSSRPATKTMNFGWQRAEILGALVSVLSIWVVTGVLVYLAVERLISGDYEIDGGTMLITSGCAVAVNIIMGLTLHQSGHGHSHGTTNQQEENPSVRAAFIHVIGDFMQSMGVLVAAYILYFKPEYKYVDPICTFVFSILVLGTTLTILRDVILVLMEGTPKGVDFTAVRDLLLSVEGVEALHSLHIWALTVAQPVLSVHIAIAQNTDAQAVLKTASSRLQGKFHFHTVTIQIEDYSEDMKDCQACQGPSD
B3: Mothers against decapentaplegic homolog 4 (Homo sapiens), Q13485 (parent)
chain: MDNMSITNTPTSNDACLSIVHSLMCHRQGGESETFAKRAIESLVKKLKEKKDELDSLITAITTNGAHPSKCVTIQRTLDGRLQVAGRKGFPHVIYARLWRWPDLHKNELKHVKYCQYAFDLKCDSVCVNPYHYERVVSPGIDLSGLTLQSNAPSSMMVKDEYVHDFEGQPSLSTEGHSIQTIQHPPSNRASTETYSTPALLAPSESNATSTANFPNIPVASTSQPASILGGSHSEGLLQIASGPQPGQQQNGFTGQPATYHHNSTTTWTGSRTAPYTPNLPHHQNGHLQHHPPMPPHPGHYWPVHNELAFQPPISNHPAPEYWCSIAYFEMDVQVGETFKVPSSCPIVTVDGYVDPSGGDRFCLGQLSNVHRTEAIERARLHIGKGVQLECKGEGDVWVRCLSDHAVFVQSYYLDREAGRAPGDAVHKIYPSAYIKVFDLRQCHRQMQQQAATAQAAAAAQAAAVAGNIPGPGSVGGIAPAISLSAAAGIGVDDLRRLCILRMSFVKGWGPDYPRQSIKETPCWIEIHLHRALQLLDEVLHTMPIADPQPLD

Variants of: B1
Details: with cryaa_human CRYAA

| Variant | effect of a mutation on the interaction |
| --- | --- |
| K124R | with no effect |

Variants of: B1
Details: with cox41_human COX4I1, P13073
Sequence of cox41_human COX4I1, P13073 (P13073 whole entry): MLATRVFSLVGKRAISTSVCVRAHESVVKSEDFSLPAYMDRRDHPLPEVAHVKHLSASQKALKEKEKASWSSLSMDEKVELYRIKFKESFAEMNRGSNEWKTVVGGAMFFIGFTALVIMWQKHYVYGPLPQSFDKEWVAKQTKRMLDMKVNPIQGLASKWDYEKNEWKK

| Variant | effect of a mutation on the interaction |
| --- | --- |
| K124R | with no effect |

Variants of: B1
Details: with frih_human FTH1, P02794

| Variant | effect of a mutation on the interaction |
| --- | --- |
| K124R | with no effect |

Variants of: B2
Details: with znt2_human SLC30A2, Q9BRI3

| Variant | effect of a mutation on the interaction |
| --- | --- |
| A67T | with no effect |

Variants of: B3
Details: with ews_human EWSR1, Q01844
Sequence of ews_human EWSR1, Q01844 (Q01844 whole entry): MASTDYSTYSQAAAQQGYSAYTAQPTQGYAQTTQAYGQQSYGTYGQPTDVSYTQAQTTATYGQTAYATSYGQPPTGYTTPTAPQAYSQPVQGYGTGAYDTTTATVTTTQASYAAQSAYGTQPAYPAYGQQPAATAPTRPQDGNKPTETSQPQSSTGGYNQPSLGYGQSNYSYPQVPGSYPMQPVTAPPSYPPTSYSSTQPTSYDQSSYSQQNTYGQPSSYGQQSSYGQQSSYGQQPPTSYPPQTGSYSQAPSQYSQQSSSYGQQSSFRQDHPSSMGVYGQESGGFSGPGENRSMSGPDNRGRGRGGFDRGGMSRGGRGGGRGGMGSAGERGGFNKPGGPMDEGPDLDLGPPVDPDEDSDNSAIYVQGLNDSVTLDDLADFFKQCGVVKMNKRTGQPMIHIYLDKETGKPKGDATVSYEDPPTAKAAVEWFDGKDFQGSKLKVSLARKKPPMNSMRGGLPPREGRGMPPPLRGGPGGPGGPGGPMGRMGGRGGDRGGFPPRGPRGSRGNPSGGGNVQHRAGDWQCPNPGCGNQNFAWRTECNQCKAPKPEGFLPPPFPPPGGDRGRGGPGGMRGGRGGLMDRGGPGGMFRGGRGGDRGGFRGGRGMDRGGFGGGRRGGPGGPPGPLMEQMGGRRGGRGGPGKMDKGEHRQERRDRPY

| Variant | effect of a mutation on the interaction |
| --- | --- |
| T174N | with no effect |
| D355N | with no effect |
| R189C | with no effect |
| V539G | disrupting interaction strength |
| R76I | with no effect |

Variants of: B3
Details: with smad3_human SMAD3, P84022
Sequence of smad3_human SMAD3, P84022 (P84022 whole entry, looked up): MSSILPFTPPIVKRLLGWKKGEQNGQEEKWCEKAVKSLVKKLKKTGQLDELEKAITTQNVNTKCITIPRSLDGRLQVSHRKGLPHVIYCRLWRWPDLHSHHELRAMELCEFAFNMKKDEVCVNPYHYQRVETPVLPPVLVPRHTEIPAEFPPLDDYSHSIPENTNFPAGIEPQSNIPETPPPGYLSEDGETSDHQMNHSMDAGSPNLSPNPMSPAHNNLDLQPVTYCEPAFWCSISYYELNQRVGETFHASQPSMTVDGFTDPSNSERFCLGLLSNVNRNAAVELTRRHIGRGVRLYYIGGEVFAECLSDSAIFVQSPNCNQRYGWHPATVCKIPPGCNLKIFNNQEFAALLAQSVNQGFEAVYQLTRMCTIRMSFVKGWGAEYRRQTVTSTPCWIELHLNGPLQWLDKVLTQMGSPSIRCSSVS

| Variant | effect of a mutation on the interaction |
| --- | --- |
| T174N | with no effect |
| D355N | disrupting interaction strength |
| E330K | disrupting interaction strength |
| M294V | with no effect |
| R189C | with no effect |
| V407L | with no effect |
| Y353S | disrupting interaction strength |
| C324R | disrupting interaction strength |
| G352R | disrupting interaction strength |
| V539G | disrupting interaction strength |
| R76I | with no effect |

Variants of: B3
Details: with smad9_human SMAD9, O15198
Sequence of smad9_human SMAD9, O15198 (O15198 whole entry): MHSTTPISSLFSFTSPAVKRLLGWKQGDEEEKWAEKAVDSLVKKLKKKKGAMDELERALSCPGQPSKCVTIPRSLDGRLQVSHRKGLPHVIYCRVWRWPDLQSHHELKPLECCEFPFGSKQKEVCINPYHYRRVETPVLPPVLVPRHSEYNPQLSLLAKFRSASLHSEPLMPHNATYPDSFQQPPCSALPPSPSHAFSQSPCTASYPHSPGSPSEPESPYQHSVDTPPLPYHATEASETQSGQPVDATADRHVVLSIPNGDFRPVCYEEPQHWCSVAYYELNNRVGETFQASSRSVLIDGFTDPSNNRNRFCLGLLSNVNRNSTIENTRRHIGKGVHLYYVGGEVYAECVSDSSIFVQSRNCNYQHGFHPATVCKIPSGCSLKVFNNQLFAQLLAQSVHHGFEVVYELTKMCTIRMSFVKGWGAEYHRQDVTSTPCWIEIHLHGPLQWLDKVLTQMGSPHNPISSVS

| Variant | effect of a mutation on the interaction |
| --- | --- |
| E330K | disrupting interaction strength |
| Y353S | disrupting interaction strength |
| C324R | disrupting interaction strength |
| G352R | disrupting interaction strength |
